Experimental data reported in the supplement of paper PMC10567573.
± gives the standard deviation.

Assay: protein stability index of a GFP-peptide fusion (GPS, HEK-293T) (PSI 1-6); higher = more stable
[1] = treatment: DMSO, c terminus: a fixed tail appended
[2] = treatment: MLN4924 1 uM, 8 h, c terminus: a fixed tail appended
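Also: 24-mer peptide tiles fused after GFP, lentivirally expressed, FACS-sorted into six equal bins by GFP/DsRed ratio, decoded by Illumina sequencing, PSI is the read-weighted mean bin number.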

Sequence	protein stability index [1]	protein stability index [2]	protein stability index (treatment: DMSO, c terminus: native)	protein stability index (treatment: MLN4924 1 uM, 8 h, c terminus: native)
IIQYRLPMKKNNNLYSWDDFMELG [ACSBG2]	2.12 ± 0.32	1.98 ± 0.25	–	–
IKEIDEHAPGVPRILVGNRLHLAF [RAB40C]	2.21 ± 0.21	2.06 ± 0.28	–	–
IKRTIRVLDVNNQSFREQEEPSNK [NET1]	3.68 ± 0.42	3.93 ± 0.26	–	–
ILFSLPPALDWDSVHVPGPHAMTI [PTPN9]	2.66 ± 0.42	2.35 ± 0.62	–	–
ILKIRHGWEDVTKINKTEICSQL [STEAP1]	–	–	2.42 ± 0.57	2.2 ± 0.21
ILLDGSEYTCDVEKRSRGQVLFDK [EPB41L3]	2.86 ± 0.55	2.94 ± 0.61	–	–
ILTLTMISLFFLIIYMGSFMLMLL [CDS1]	2.4 ± 0.65	2.35 ± 0.39	–	–
IPKVELQISIYGVKILEPKTKEVQ [GULP1]	2.46 ± 0.51	1.98 ± 0.23	–	–
IQDNGTGIRKEDLDIVCERFTTSK [MLH1]	4.17 ± 0.2	4.46 ± 0.33	–	–
IQGADTIRCVYILDPWFAGSSNVG [CRY1]	2.81 ± 0.56	2.6 ± 0.54	–	–
IRKEMKLLEQAGSLKGSLSVEEQL [CRYL1]	4.54 ± 0.53	4.372 ± 0.012	–	–
IRRAYPDANLLNDRVLRAMLKAEE [CCND1]	2.96 ± 0.24	3.52 ± 0.47	–	–
ISKKFGDMSYSIRHSISMPAMRNS [TPD52L1]	2.51 ± 0.41	2.65 ± 0.52	–	–
ISPGKNATGMEVGWYRPPFSRVVH [MOG]	2.45 ± 0.17	2.69 ± 0.23	–	–
ISRDRLSSYYKFKLTREVLSLFVQ [ZER1]	2.11 ± 0.52	2.13 ± 0.29	–	–
ISSGLRGCMLIELALRGRLQLEAC [GOLPH3]	3.22 ± 0.62	2.67 ± 0.21	–	–
ISSTSTKRTYWPDLDAKIREALVL [PLD5]	2.38 ± 0.39	2.43 ± 0.49	–	–
ITDLPRIDVSKREPPPVKQELPPY [EFHC1]	4.37 ± 0.033	4.45 ± 0.17	–	–
ITHSTVGSKGEKDLGASSLHVNGE [EHMT1]	4.9 ± 0.2	5.03 ± 0.24	–	–
ITTKIFWGGKAETERGLSRKHIIE [KCNAB2]	2.65 ± 0.29	2.89 ± 0.33	–	–
IVAGGYDERVLENVEHYQELKKMV [ALG2]	3.14 ± 0.25	3.2 ± 0.11	–	–
IWEQRSATVVMMTKLEERSRVKCD [PTPRD]	3.29 ± 0.27	3.26 ± 0.41	–	–

Sequence	protein stability index [1]	protein stability index [2]	protein stability index (treatment: DMSO, c terminus: native)	protein stability index (treatment: MLN4924 1 uM, 8 h, c terminus: native)
KAFYKRYRLTEHERAHKGEKPYGC [ZNF649]	3.62 ± 0.93	3.16 ± 0.57	–	–
KAHETLHQSLSLASSPKGTIENIL [CDC25A]	3.55 ± 0.5	3.59 ± 0.22	–	–
KAPSKLGLIISGPILQEGMDEEKL [DLC1]	4.47 ± 0.38	4.54 ± 0.36	–	–
KARGKSGPLFNFDVHDDVRLLSDA [FAM50A]	3.87 ± 0.15	3.81 ± 0.3	–	–
KASALNTKIRALQGSLENMSKLLK [CD207]	2.22 ± 0.33	2.26 ± 0.32	–	–
KAYDHQTQELVAIKIIKNKKAFLN [DYRK1B]	2.37 ± 0.22	2.62 ± 0.25	–	–
KCLQLLGNLGSLEKSVTKDAEGLA [INTS4]	2.82 ± 0.46	3.08 ± 0.099	–	–
KCLVTEAQTLLRLSGVQRVESVFF [RSAD1]	2.53 ± 0.43	2.4 ± 0.25	–	–
KCRMEESNAERGTAEPFPRLHNLY [CBY2]	2.85 ± 0.27	2.78 ± 0.15	–	–
KDQRNPPSLGRVLPDPREACGSSS [RBMY1A1]	4.78 ± 0.17	5.18 ± 0.095	–	–
KDSHDPLPSWAELLRPKYRAPQGC [PBXIP1]	3.01 ± 0.37	3.19 ± 0.2	–	–
KEEEEEDCSEEYLERQLQAEFIES [TAF7L]	5.36 ± 0.36	5.56 ± 0.12	–	–
KEVFASRISNPSDDNSCEDLEEER [PCMTD2]	5.55 ± 0.33	5.41 ± 0.31	–	–
KFAMYPPSMIATGSVGAAICGLQQ [CCND2]	2.4 ± 0.52	2.2 ± 0.4	–	–
KFLVGTVGSDPLIKSDEECRDLVD [KLHL20]	4.41 ± 0.78	4.14 ± 0.47	–	–
KGNRTARIIDKPRVIEVLPRGATA [SEPHS2]	3.64 ± 0.22	3.77 ± 0.2	–	–
KHAGKDPVRDECEERNRFTETREE [FAM9B]	5.54 ± 0.2	5.49 ± 0.2	–	–
KIESLMDEIEFLKKLHEEELRDLQ [PRPH]	3.14 ± 0.23	3.61 ± 0.35	–	–
KILDELEKVLDQVETELQRRNEET [GDAP1]	3.08 ± 0.1	3.53 ± 0.081	–	–
KIQASGETPNSLNTTVIPNGSMAM [LYSMD4]	4.22 ± 0.097	4.09 ± 0.2	–	–
KKIFAQLDSIIDDRVILSSSTSCL [CRYL1]	2.35 ± 0.15	2.58 ± 0.3	–	–
KKKVGNYYTTPIYRFRMKCHLCVN [YJU2B]	2.21 ± 0.33	2.19 ± 0.3	–	–

Sequence	protein stability index [1]	protein stability index [2]	protein stability index (treatment: DMSO, c terminus: native)	protein stability index (treatment: MLN4924 1 uM, 8 h, c terminus: native)
KLALDMEISAYRKLLQGEEERLKL [LMNB1]	3.24 ± 0.23	3.28 ± 0.36	–	–
KLEEERAKLHDVELHQVAERVEAL [GNB5]	5 ± 0.34	5.15 ± 0.18	–	–
KLKALHVDSAEYSCLKAIVLFTSD [NR2F2]	2.45 ± 0.36	2.27 ± 0.15	–	–
KLKKGICEALEDSDGRQDSPAGEL [MATN2]	5.3 ± 0.28	5.31 ± 0.15	–	–
KLREKERKKEAKRKISSLSFTLEE [FAM50A]	4.29 ± 0.3	4.53 ± 0.34	–	–
KLTREQEELEEALEVERQENEQRR [MNAT1]	5.59 ± 0.18	5.45 ± 0.27	–	–
KPGEGRSALFAGNEWRRPIIQFVE [TRIM29]	2.34 ± 0.35	2.86 ± 0.46	–	–
KQKVSRIERSSSFSSITDSTMSLN [DVL3]	4.27 ± 0.049	4.43 ± 0.16	–	–
KQLICPICLEMFTKPVVILPCQHN [TRIM63]	2.97 ± 0.31	3.01 ± 0.43	–	–
KQQENATSCSLELIGDLIGHSSSV [WDR41]	3.02 ± 0.37	3.17 ± 0.11	–	–
KRKLGLTALVGLRQNLSKSWLDVQ [TPD52L3]	2.17 ± 0.71	2.16 ± 0.42	–	–
KSCYNGRFQLLYVACGMVHLLIPE [DNAAF3]	3.37 ± 0.63	2.77 ± 0.36	–	–
KSIDPVLMAPTCVFLASKVEEFGV [CCNC]	1.92 ± 0.11	2.05 ± 0.34	–	–
KVAKLLGYSTHADFVLEMNTAKST [NLN]	1.9 ± 0.33	2.35 ± 0.24	–	–
KVRPSHKRCIVILREIPETTPIEE [LARP4]	2.59 ± 0.21	2.58 ± 0.35	–	–
KVSYLKQKGLGGAMVWALDLDDFA [CHIT1]	1.85 ± 0.49	2.36 ± 0.3	–	–
KYDPTIEDSYRKQVEVDAQQCMLE [RAP1B]	4.55 ± 0.12	4.66 ± 0.11	–	–
LAFVGGLPLAYQQTSAFARQPRDE [TMEM175]	3 ± 0.31	3.06 ± 0.15	–	–
LAHLGRHMEALEIAANLENKATNT [C8orf76]	4.22 ± 0.17	4.29 ± 0.37	–	–
LAKTGEGSYGVVFKCRNKTSGQVV [CDKL4]	2.72 ± 0.31	2.75 ± 0.2	–	–
LALHPEAPGLYNHLPWQYHAGQGG [CCDC3]	3.2 ± 0.5	2.63 ± 0.28	–	–
